Measured values from patent US8697369B2, “Method for screening a test substance for activating a receptor associated with FGF 21 activity” (National Institute of Advanced Industrial Science and …, priority 2007, dated 2014).

What was measured:
Format in all cases: cell-based
[1] = biological target: T1, FGFR1c-expressing BaF3 cells (Mus musculus, UniProt P16092); assay: DNA synthesis (thymidine incorporation) in BaF3 cells expressing only FGFR1c; conditions: BaF3 cells expressing FGFR1c but not betaKlotho
T1 construct: the entire-length cDNA of mouse FGFR1c had been cloned; expressed in transfected cells; host or cells: BaF3 (mouse pro-B) cells
Protocol: A commonly used measurement method is a cell growth stimulating activity measurement method described in Ornitz, D. M., Xu, J., Colvin, J. S., McEwen, D. G., MacArthur, C. A., Coulier, F., Gao, G. and Goldfarb, M. (1996) Receptor specificity of the fibroblast growth factor family. J Biol Chem, 271, 15292-15297. The summary thereof is as follows. FGF used as a measurement target is added to a culture solution containing a cultured cell having an FGF receptor on the surface thereof, and the obtained mixture is cultured for a certain period of time. Thereafter, a labeled thymidine is added to the culture solution, followed by further culture for a certain period of time. By measuring the amount of the labeled thymidine incorporated into polymeric DNA during the culture, the degree of FGF to activate DNA synthesis is evaluated. (In the present invention as well, this method was adopted when the activity of FGF21 was measured in Examples 4, 5, 6, 8, 9, and 10.) […]
Immediately after inoculation, BaF3 cells that had expressed each clone and only FGFR1c were stimulated by addition of FGF21 (open bar) or PBS (filled bar) used as a control in the presence of heparin, and they were then cultured for 42 hours. […] Thereafter, the amount of thymidine incorporated into the cells was measured, so as to evaluate DNA synthesis. […]

[2] = biological target: T2, BaF3 cells that had co-expressed FGFR1c and Klotho (Mus musculus, UniProt O35082+P16092); assay: DNA synthesis in BaF3 cells co-expressing FGFR1c and Klotho; conditions: presence or absence of heparin
T2 construct: the entire-length cDNA of mouse FGFR1c had been cloned; expressed in transfected cells; host or cells: BaF3 (mouse pro-B) cells
Protocol: Specifically, BaF3 cell that had co-expressed FGFR1c and betaKlotho and BaF3 cells that had co-expressed FGFR1c and Klotho were prepared by the same transformation method and under the same culture conditions as those applied in Example 4. Thereafter, FGF21 and FGF23 were added to both types of transformed cells in the presence or absence of heparin, and the amount of DNA synthesized was then measured.

[3] = test system: undifferentiated 3T3-L1 fibroblasts; assay: GLUT1 mRNA expression in undifferentiated 3T3-L1 fibroblasts; conditions: various concentrations, 6 hours
Protocol: It has been reported that FGF21 allows adipocytes to increasingly express glucose transporter 1 (GLUT1). In the present example, as cultured adipocytes, there were used 3T3-L1 cells that are fibroblasts having the ability to differentiate into adipocytes by controlling culture conditions. The cells were cultured in a culture solution of a Dulbecco's modified Eagle medium (DMEM) containing 10% fetal bovine serum (FBS), so as to prepare cells maintaining an undifferentiated property as fibroblasts. The prepared cells were cultured in a test system, and they were allowed to grow to a confluent state. The cells were then left for 2 days. Thereafter, the culture solution was exchanged with DMEM as a culture solution used for differentiation induction, which comprised 10% FBS, 0.25 μM dexamethasone, 0.5 mM methyl isobutyl xanthine, and 5 μg/ml insulin. The cells were cultured for 2 days. […] The term “cells having the properties of adipocytes” is used herein to mean cells, which conduct intracellular metabolism specific to adipocytes and have cytoplasm in which large quantities of fat droplets are accumulated.
FGF21 were added in various types of concentrations to such different types of culture solutions, and the cells were further culture for 6 hours. Thereafter, RNA was extracted, and the copy number of GLUT1 was counted.

[4] = test system: 3T3-L1 fibroblasts forced to express betaKlotho; assay: GLUT1 mRNA level in 3T3-L1 fibroblasts forced to express betaKlotho; conditions: betaKlotho expression vector; various concentrations; 6 hours
Protocol: (§1) A betaKlotho expression vector or an empty vector used as a control, into which betaKlotho cDNA had not been inserted, were introduced into 3T3-L1 fibroblasts, and FGF21 was then added in various types of concentrations to a culture solution of the 3T3-L1 fibroblasts. The obtained mixture was cultured for 6 hours. Thereafter, RNA was extracted, and the mRNA level of GLUT1 was then measured.

[5] = test system: control 3T3-L1 fibroblasts; assay: GLUT1 mRNA level in control 3T3-L1 fibroblasts (empty vector); conditions: various concentrations, 6 hours
Protocol: as §1

T1 sequence (P16092 22-822): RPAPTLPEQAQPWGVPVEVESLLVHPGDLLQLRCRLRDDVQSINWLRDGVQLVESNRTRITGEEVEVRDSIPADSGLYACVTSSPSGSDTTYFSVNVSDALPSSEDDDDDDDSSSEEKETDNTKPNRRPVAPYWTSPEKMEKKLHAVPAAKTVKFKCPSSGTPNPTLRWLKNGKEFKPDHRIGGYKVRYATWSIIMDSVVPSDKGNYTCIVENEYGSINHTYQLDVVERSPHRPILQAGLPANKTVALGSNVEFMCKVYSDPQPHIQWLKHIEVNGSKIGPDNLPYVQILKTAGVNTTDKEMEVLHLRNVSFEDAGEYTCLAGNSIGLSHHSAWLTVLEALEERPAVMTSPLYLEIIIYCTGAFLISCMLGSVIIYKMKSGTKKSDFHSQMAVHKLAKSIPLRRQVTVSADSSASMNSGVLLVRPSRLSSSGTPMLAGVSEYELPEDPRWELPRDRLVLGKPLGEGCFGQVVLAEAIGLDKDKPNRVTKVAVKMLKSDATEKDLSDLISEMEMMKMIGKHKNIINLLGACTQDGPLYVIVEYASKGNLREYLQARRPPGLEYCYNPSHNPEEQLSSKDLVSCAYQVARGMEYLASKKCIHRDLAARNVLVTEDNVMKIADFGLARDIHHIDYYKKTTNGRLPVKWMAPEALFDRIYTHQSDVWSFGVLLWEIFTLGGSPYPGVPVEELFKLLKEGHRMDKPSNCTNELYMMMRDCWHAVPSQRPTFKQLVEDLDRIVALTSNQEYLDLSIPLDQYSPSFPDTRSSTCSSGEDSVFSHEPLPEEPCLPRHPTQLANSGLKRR
T2 sequence (P16092 22-822): as above
T2 sequence (O35082 35-1014): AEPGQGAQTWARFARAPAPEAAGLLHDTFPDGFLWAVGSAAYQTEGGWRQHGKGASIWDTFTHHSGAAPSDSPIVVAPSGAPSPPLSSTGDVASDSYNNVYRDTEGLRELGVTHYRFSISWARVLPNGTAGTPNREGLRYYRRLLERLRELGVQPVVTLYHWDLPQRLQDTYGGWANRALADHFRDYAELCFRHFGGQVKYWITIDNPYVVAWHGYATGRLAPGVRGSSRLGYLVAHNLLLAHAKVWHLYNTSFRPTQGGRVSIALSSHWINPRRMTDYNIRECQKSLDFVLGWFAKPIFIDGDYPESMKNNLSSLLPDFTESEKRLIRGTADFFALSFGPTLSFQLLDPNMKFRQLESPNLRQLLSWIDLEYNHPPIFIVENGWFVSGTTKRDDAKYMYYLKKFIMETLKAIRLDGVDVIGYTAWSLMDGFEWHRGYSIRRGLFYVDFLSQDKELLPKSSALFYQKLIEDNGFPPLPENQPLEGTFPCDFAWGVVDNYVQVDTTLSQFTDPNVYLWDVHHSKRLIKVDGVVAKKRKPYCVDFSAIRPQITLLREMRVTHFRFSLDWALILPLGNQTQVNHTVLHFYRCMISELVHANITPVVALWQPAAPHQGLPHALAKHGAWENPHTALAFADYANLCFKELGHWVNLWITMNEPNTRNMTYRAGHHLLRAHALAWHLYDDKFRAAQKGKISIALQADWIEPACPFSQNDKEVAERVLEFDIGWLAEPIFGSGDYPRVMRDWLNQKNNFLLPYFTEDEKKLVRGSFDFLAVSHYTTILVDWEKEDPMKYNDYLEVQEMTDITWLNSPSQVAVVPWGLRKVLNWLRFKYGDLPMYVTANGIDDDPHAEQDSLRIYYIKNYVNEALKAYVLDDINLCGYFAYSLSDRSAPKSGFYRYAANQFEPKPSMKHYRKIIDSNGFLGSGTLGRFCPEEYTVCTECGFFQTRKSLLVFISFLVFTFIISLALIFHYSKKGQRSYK

B1: FGF21: fibroblast growth factor 21; mouse-derived protein used in Examples 1-7 and 10-13 (protein)
chain: AYPIPDSSPLLQFGGQVRQRYLYTDDDQDTEAHLEIREDGTVVGAAHRSPESLLELKALKPGVIQILGVKASRFLCQQPDGALYGSPHFDPEACSFRELLLEDGYNVYQSEAHGLPLRLPQKDSPNQDATSWGPVRFLPMPGLLHEPQDQAGFLPPEPPDVGSSDPLSMVEPLQGRSPSYAS
For B1, the “DNA synthesis (thymidine incorporated into the cells)” value [1] was “did not react with FGF21”, the “amount of DNA synthesized” value [2] was “did not react with FGFR1c” and the “expression level of GLUT1 mRNA” value [3] was “hardly changed”. The “mRNA level of GLUT1” value [4] was “increased depending on the amount of FGF21” and the “mRNA level of GLUT1” value [5] was “not observed”.
